{"source": "patent US10001489B2", "about": "“Method for constructing a novel affinity peptide library for binding immunoglobulin G based on a protein affinity model of protein A” (TIANJIN UNIVERSITY, priority 2012, dated 2018)", "key": {"[1]": {"test_system": "hIgG", "assay": "Affinity chromatography, pulse injection of hIgG on peptide-coupled Thiopropyl Sepharose 6B column", "assay_type": "binding, human", "experimental": "(§1) Peptide powders purchased from GL Biochem Ltd. (Shanghai, China) had been purified by high performance liquid chromatography (HPLC) with a purity of 96.36%. 1 g of resin (Thiopropyl Sepharose 6B, purchased from GE Healthcare) was weighed and washed for 15 min with 200 mL of deionized water in a buchner funnel. After being filtered and getting rid of water, two aliquots of 1.0 g of drained gel were transferred into two 25-mL Erlenmeyer flasks, respectively. Then 6 mL and 10.7 mL of linking buffer (0.1 M Tris-HCl, pH 7.5, 0.5 M NaCl and 1 mM EDTA) were added to the two flasks respectively, to fully pre-equilibrate the gels. […] The peptides were fully mixed with the gels in corresponding flasks and initial peptide concentrations of 1.0 mg/mL were obtained. The mixtures were reacting in a shaking bath at a rate of 180 rpm, at 25° C. for 2 h. 500 μL of supernatant was acquired each hour for analyzing the residue peptide content in the reaction solution with reversed-phase high pressure liquid chromatography (RP-HPLC). […] After the reaction was finished, the reaction system was centrifuged and the supernatant was removed, then the gel was washed repeatedly with washing buffer (10 mM PBS, pH 7.2, 150 mM NaCl) in a buchner funnel to get rid of the free peptides. Finally, equilibriation buffer (20 mmol/L citrate buffers, pH 5.0-5.5; or 20 mmol/L PBS buffers, pH 5.5-6.0) was used to suspend the gel to 1 mL, and after being degassed, the gel was slowly loaded into the glass column (Tricorn chromatogram column, Tricorn 5×5, GE healthcare). The column was first washed with equilibration buffer at 0.1 mL/min, and then the speed of the buffer was increased to 0.2 mL/min when the column pressure was stable, and the speed of the buffer was increased according to above operation till it reached 1.0 mL/min.\n(1) Equilibration: the affinity column was washed with equilibration buffer until a stable baseline was reached. The flow rate of buffer was 0.5 mL/min, keep washing another five column volumes (CVs) before sample injection. […]"}, "[2]": {"biological_target": "bovine serum albumin (BSA) (Bos taurus, UniProt P02769)", "sequence (P02769 25-607)": "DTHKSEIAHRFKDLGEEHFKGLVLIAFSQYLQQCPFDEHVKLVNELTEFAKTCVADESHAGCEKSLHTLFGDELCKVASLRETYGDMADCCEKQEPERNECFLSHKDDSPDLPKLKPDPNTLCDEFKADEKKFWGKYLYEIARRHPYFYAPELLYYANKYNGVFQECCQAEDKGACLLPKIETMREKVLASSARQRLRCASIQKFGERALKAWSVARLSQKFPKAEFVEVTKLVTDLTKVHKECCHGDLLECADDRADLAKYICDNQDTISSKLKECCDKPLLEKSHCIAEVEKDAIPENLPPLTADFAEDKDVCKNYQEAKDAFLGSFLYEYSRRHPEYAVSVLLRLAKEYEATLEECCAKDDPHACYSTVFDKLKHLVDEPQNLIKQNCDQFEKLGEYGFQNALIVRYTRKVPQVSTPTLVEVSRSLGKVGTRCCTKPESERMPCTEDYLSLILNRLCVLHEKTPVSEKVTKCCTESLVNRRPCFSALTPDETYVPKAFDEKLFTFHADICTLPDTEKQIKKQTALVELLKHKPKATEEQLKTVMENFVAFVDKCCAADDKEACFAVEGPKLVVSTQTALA", "assay": "Affinity chromatography, BSA on peptide-coupled Thiopropyl Sepharose 6B column", "assay_type": "binding", "experimental": "as §1\n(1) Equilibration: the affinity column was washed with equilibration buffer until a stable baseline was reached. The flow rate of buffer was 0.5 mL/min, keep washing another five column volumes (CVs) before sample injection.\n(2) Sample injection: unless specifically stated, all protein samples were prepared by equilibration buffer. After sample injection, the column was equilibrated with 5-10 CVs of equilibration buffer (20 mmol/L citrate buffer, pH≤5.5; or 20 mmol/L PBS buffer, pH≥5.5). The sample loading amount was 100 μL, protein sample concentration was 1.0 mg/mL, and the flow rate was 0.5 mL/min.\n(3) Elution: the column was washed with 5-10 CVs of elution buffer, and the flow rate was 0.8 mL/min.\n(4) Storage: first 10 CVs of deionized water was used to wash the column, followed by another 10 CVs of 20% ethanol solution. Then the affinity gel was stored in this solution. All buffers should be filtered through a filter and degassed before use."}, "[3]": {"biological_target": "bovine serum albumin (bovine) (UniProt P02769)", "sequence (P02769 25-607 limits assumed)": "as the sequence (P02769 25-607) above", "assay": "affinity chromatography, peptide immobilized on Thiopropyl Sepharose 6B, pH 5.5"}, "[4]": {"biological_target": "bovine serum albumin (bovine) (UniProt P02769)", "assay": "affinity chromatography, peptide immobilized on Thiopropyl Sepharose 6B, pH 6.0"}}, "note": "Where no end group is shown, it is not given here.", "data": [{"sequence": "FYWHCLDE (not fully specified (residue 5)) [synthesized and immobilized on Thiopropyl Sepharose 6B]", "values": [{"measurement": "binding of hIgG by immobilised peptide ligand", "setting": "[1]; pH 5.0-6.0", "result": "strong binding"}, {"measurement": "binding of BSA by immobilised peptide ligand", "setting": "[2]; pH 5.5", "result": "large binding"}]}, {"sequence": "FYCHWALE (not fully specified (residue 3)) [synthesized and immobilized on Thiopropyl Sepharose 6B]", "values": [{"measurement": "binding of hIgG by immobilised peptide ligand", "setting": "[1]; pH 5.5-7.0", "result": "could bind a lot of hIgGs"}, {"measurement": "binding of hIgG by immobilised peptide ligand", "setting": "[1]; pH 6.0, 20 mM PBS", "result": "could bind almost all hIgGs"}, {"measurement": "binding of BSA by immobilised peptide ligand", "setting": "[2]; pH 5.5", "result": "about half"}, {"measurement": "binding of BSA by immobilised peptide ligand (fraction of BSA bound)", "setting": "[2]; pH 6.0", "result": "⅓"}, {"measurement": "binding of BSA by immobilised peptide ligand", "setting": "[2]; pH 6.5", "result": "trace"}]}, {"sequence": "FYCHWALE peptide ligand", "values": [{"measurement": "fraction of loaded protein bound (fraction of BSA)", "setting": "[3]", "result": 0.5}, {"measurement": "fraction of loaded protein bound (fraction of BSA)", "setting": "[4]", "result": 0.333}]}]}
